B1: MKK6 D-site peptide / p38-alpha (MAPK14) L195A, full length (parent complex)
chain 1: SQSKGKKRNPGLKIPKEAFEQP
chain 2: MSQERPTFYRQELNKTVWEVPERYQNLSPVGSGAYGSVCAAFDTKTGHRVAVKKLSRPFQSIIHAKRTYRELRLLKHMKHENVIGLLDVFTPARSLEEFNDVYLVTHLMGADLNNIVKCQKLTDDHVQFLIYQILRGLKYIHSADIIHRDLKPSNLAVNEDCELKILDFGLARHTDDEMTGYVATRWYRAPEIMANWMHYNQTVDIWSVGCIMAELLTGRTLFPGTDHIDQLKLILRLVGTPGAELLKKISSESARNYIQSLAQMPKMNFANVFIGANPLAVDLLEKMLVLDSDKRITAAQALAHAYFAQYHDPDDEPVAEPYDQSFESRDFLIDEWKSLTYDEVISFVPPPLDQEEMES

In the experiment the parent is B1.
As to chain 1 K4A, chain 1 G5A, the screen value was 0.605 Z-score of the enrichment rate within one screen of 711 sequences.
With chain 1 S3A, chain 1 K16A, the screen value is 0.893 Z-score of the enrichment rate within one screen of 711 sequences.
The figure for chain 1 N9A, chain 1 K16A is 0.162 Z-score of the enrichment rate within one screen of 711 sequences.
For the variant chain 1 G5A, chain 1 P10A, the screen value was 0.354 Z-score of the enrichment rate within one screen of 711 sequences.
Take chain 1 K4M: the screen value is 0.845 Z-score of the enrichment rate within one screen of 711 sequences.
chain 1 K4T: the screen value is 0.747 Z-score of the enrichment rate within one screen of 711 sequences.
With chain 1 K4L, the screen value was 1.3 Z-score of the enrichment rate within one screen of 711 sequences.
To chain 1 K4A belongs 0.525 Z-score of the enrichment rate within one screen of 711 sequences.
Consider chain 1 K4R, for which the screen value is 2.04 Z-score of the enrichment rate within one screen of 711 sequences.
To chain 1 K4S belongs 0.887 Z-score of the enrichment rate within one screen of 711 sequences; to chain 1 R8A, -0.149 Z-score of the enrichment rate within one screen of 711 sequences.
As to chain 1 R8M, the screen value was -0.224 Z-score of the enrichment rate within one screen of 711 sequences.
Take chain 1 R8Q: the screen value was -0.189 Z-score of the enrichment rate within one screen of 711 sequences.
Regarding chain 1 R8K, the screen value was 1.16 Z-score of the enrichment rate within one screen of 711 sequences.
As for chain 1 R8V, the screen value is -0.0927 Z-score of the enrichment rate within one screen of 711 sequences.
Take chain 1 R8H: the screen value is 0.072 Z-score of the enrichment rate within one screen of 711 sequences.
Regarding chain 1 R8G, the screen value is -0.084 Z-score of the enrichment rate within one screen of 711 sequences.
To chain 1 R8D belongs -1 Z-score of the enrichment rate within one screen of 711 sequences.
Turning to chain 1 R8C, the screen value was -0.13 Z-score of the enrichment rate within one screen of 711 sequences.
As for chain 1 R8T, the screen value was 0.227 Z-score of the enrichment rate within one screen of 711 sequences.
The figure for chain 1 P15H is 1.18 Z-score of the enrichment rate within one screen of 711 sequences.
Turning to chain 1 P15A, the screen value was 2.82 Z-score of the enrichment rate within one screen of 711 sequences.
Consider chain 1 P15V, for which the screen value is 3.1 Z-score of the enrichment rate within one screen of 711 sequences.
To chain 1 P15F belongs 1.25 Z-score of the enrichment rate within one screen of 711 sequences; to chain 1 P15Q, 0.909 Z-score of the enrichment rate within one screen of 711 sequences.
As to chain 1 P15N, the screen value was 2.75 Z-score of the enrichment rate within one screen of 711 sequences.
Consider chain 1 P15L, for which the screen value is 1.3 Z-score of the enrichment rate within one screen of 711 sequences.
As to chain 1 K4A, chain 1 K13A, the screen value was -0.724 Z-score of the enrichment rate within one screen of 711 sequences.
As to chain 1 P15A, chain 1 K16A, the screen value is 1.54 Z-score of the enrichment rate within one screen of 711 sequences.
On to chain 1 P15A, chain 1 K16N, for which the screen value was 0.0482 Z-score of the enrichment rate within one screen of 711 sequences.
To chain 1 G11A, chain 1 I14A belongs -0.938 Z-score of the enrichment rate within one screen of 711 sequences; to chain 1 G11A, chain 1 K13A, -0.412 Z-score of the enrichment rate within one screen of 711 sequences.
As to chain 1 G11I, the screen value is 0.58 Z-score of the enrichment rate within one screen of 711 sequences.
Take chain 1 G11P: the screen value is -0.211 Z-score of the enrichment rate within one screen of 711 sequences.
Turning to chain 1 G11H, the screen value was 1.37 Z-score of the enrichment rate within one screen of 711 sequences.
As for chain 1 G11T, the screen value is 1.22 Z-score of the enrichment rate within one screen of 711 sequences.
To chain 1 G11N belongs 1.3 Z-score of the enrichment rate within one screen of 711 sequences; to chain 1 G11C, 1.37 Z-score of the enrichment rate within one screen of 711 sequences.
In the case of chain 1 G11V, the screen value was 0.807 Z-score of the enrichment rate within one screen of 711 sequences.
As for chain 1 G11D, the screen value was 0.0949 Z-score of the enrichment rate within one screen of 711 sequences.
Take chain 1 G11Q: the screen value was 1.09 Z-score of the enrichment rate within one screen of 711 sequences.
For the variant chain 1 G11L, the screen value is 1 Z-score of the enrichment rate within one screen of 711 sequences.
Regarding chain 1 S3G, the screen value is 1.64 Z-score of the enrichment rate within one screen of 711 sequences.
As for chain 1 S3R, the screen value is 2.3 Z-score of the enrichment rate within one screen of 711 sequences.
With chain 1 S3Q, the screen value was 1.81 Z-score of the enrichment rate within one screen of 711 sequences.
To chain 1 S3Y belongs 1.82 Z-score of the enrichment rate within one screen of 711 sequences; to chain 1 S3V, 1.42 Z-score of the enrichment rate within one screen of 711 sequences.
Take chain 1 S3A: the screen value is 1.56 Z-score of the enrichment rate within one screen of 711 sequences.
For the variant chain 1 K4A, chain 1 K6A, the screen value is -0.342 Z-score of the enrichment rate within one screen of 711 sequences.
chain 1 K4A, chain 1 G11A: the screen value was 0.565 Z-score of the enrichment rate within one screen of 711 sequences.
Take chain 1 K6F: the screen value is 1.13 Z-score of the enrichment rate within one screen of 711 sequences.
Regarding chain 1 K6S, the screen value was 0.535 Z-score of the enrichment rate within one screen of 711 sequences.
For the variant chain 1 K6N, the screen value was 0.746 Z-score of the enrichment rate within one screen of 711 sequences.
Consider chain 1 K6I, for which the screen value was 0.848 Z-score of the enrichment rate within one screen of 711 sequences.
As to chain 1 K6C, the screen value is 0.831 Z-score of the enrichment rate within one screen of 711 sequences.
As for chain 1 K6H, the screen value is 0.638 Z-score of the enrichment rate within one screen of 711 sequences.
As for chain 1 K6G, the screen value is 0.521 Z-score of the enrichment rate within one screen of 711 sequences.
The figure for chain 1 K6T is 0.469 Z-score of the enrichment rate within one screen of 711 sequences.
On to chain 1 K6L, for which the screen value was 1.2 Z-score of the enrichment rate within one screen of 711 sequences.
As for chain 1 R8A, chain 1 N9A, the screen value is -0.113 Z-score of the enrichment rate within one screen of 711 sequences.
Consider chain 1 K6A, chain 1 P10A, for which the screen value was -0.354 Z-score of the enrichment rate within one screen of 711 sequences.
The figure for chain 1 K7A, chain 1 I14A is -1.1 Z-score of the enrichment rate within one screen of 711 sequences; for chain 1 G11A, chain 1 L12A it is -0.887 Z-score of the enrichment rate within one screen of 711 sequences; for chain 1 P10A, chain 1 G11A it is 0.0844 Z-score of the enrichment rate within one screen of 711 sequences.
As for chain 1 K4A, chain 1 R8A, the screen value was -0.792 Z-score of the enrichment rate within one screen of 711 sequences.
To chain 1 K6A, chain 1 R8A belongs -0.524 Z-score of the enrichment rate within one screen of 711 sequences.
On to chain 1 P10D, for which the screen value is -0.469 Z-score of the enrichment rate within one screen of 711 sequences.
In the case of chain 1 P10G, the screen value is 0.241 Z-score of the enrichment rate within one screen of 711 sequences.
For chain 1 P10R, the screen value is 1.04 Z-score of the enrichment rate within one screen of 711 sequences.
The figure for chain 1 P10N is 0.284 Z-score of the enrichment rate within one screen of 711 sequences.
For chain 1 P10H, the screen value was 1.57 Z-score of the enrichment rate within one screen of 711 sequences.
With chain 1 P10I, the screen value is 0.802 Z-score of the enrichment rate within one screen of 711 sequences.
Take chain 1 P10E: the screen value is -0.594 Z-score of the enrichment rate within one screen of 711 sequences.
Take chain 1 P10A, chain 1 K16A: the screen value is -0.276 Z-score of the enrichment rate within one screen of 711 sequences.
The figure for chain 1 G5A, chain 1 K16A is 0.905 Z-score of the enrichment rate within one screen of 711 sequences.
